Publication PMC5389509

T1: YxiN S108C/N444C (UniProt P42305 1-479, C61A;C267A;S108C;N444C)
T1 sequence: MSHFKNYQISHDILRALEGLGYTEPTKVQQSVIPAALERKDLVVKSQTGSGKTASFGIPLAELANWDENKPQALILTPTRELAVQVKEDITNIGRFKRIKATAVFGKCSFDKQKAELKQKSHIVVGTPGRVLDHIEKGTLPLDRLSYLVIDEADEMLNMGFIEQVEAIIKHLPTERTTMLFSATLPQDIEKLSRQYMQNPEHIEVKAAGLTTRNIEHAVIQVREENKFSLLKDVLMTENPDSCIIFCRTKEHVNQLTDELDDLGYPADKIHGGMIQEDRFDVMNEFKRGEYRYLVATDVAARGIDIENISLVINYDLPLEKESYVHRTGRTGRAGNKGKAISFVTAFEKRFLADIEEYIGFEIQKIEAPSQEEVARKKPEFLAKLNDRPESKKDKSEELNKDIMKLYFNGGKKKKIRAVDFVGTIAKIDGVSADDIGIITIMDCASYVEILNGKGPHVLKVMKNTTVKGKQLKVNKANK

T2: YxiN S108C/N464C (UniProt P42305 1-479, C61A;C267A;S108C;N464C)
T2 sequence: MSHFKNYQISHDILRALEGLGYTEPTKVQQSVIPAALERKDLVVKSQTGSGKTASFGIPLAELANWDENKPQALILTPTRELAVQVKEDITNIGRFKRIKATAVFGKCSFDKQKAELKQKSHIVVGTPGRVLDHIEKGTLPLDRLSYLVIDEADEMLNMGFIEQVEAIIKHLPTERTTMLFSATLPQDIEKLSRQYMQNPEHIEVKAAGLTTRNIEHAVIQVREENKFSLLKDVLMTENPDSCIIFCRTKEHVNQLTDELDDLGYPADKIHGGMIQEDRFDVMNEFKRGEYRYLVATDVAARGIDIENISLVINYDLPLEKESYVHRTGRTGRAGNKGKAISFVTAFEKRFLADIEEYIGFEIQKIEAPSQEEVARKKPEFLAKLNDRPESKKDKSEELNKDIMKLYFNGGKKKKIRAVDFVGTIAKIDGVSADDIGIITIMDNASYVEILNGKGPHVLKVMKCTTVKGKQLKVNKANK

T3: YxiN S108C/D429C (UniProt P42305 1-479, C61A;C267A;S108C;D429C)
T3 sequence: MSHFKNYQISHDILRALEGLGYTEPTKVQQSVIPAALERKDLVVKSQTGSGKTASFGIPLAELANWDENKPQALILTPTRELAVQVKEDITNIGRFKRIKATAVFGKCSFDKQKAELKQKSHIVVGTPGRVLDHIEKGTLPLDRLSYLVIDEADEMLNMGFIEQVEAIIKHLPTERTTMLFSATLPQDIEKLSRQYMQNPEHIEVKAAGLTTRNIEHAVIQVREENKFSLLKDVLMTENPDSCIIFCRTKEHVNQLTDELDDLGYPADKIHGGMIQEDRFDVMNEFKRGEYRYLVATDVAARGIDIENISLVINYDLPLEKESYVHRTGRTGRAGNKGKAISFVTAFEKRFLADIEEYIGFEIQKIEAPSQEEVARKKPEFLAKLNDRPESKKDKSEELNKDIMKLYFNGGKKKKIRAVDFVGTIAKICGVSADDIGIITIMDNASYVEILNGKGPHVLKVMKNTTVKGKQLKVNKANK

T4: YxiN A115C/S229C biotinylated (UniProt P42305 1-479, C61A;C267A;A115C;S229C)
T4 sequence: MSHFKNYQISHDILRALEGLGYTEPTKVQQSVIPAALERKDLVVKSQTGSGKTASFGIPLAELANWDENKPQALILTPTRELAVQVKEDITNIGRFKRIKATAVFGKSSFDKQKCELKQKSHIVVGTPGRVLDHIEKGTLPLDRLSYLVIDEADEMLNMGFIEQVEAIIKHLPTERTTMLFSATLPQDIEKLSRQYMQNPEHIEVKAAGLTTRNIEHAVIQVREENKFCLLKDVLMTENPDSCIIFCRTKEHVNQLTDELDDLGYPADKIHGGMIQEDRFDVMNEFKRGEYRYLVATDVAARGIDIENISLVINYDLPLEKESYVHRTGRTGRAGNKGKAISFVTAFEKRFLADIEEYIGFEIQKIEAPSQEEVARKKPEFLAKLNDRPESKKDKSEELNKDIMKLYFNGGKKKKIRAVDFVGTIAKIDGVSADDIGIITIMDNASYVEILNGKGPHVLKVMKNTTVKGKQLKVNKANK

T5: YxiN S108C/S229C (UniProt P42305 1-479, C61A;C267A;S108C;S229C)
T5 sequence: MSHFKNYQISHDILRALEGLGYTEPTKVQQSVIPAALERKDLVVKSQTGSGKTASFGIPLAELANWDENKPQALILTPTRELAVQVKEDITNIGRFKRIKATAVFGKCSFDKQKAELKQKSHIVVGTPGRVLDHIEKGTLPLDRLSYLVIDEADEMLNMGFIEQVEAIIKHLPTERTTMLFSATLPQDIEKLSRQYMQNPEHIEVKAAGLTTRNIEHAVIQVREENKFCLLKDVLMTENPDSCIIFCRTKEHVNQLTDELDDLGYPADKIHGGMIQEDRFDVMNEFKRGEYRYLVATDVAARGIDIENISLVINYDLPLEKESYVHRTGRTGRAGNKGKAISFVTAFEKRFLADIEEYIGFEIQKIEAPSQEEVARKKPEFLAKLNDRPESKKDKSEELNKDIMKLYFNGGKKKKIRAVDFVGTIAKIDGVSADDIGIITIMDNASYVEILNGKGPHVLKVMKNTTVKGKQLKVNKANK

B1: 32mer (FAM) (structured_RNA)
RNA: CGAGGUCCCAAGGGUUGGGCUGUUCGCCCAUU
B2: 32mer (structured_RNA)
RNA: CGAGGUCCCAAGGGUUGGGCUGUUCGCCCAUU
B3: 32merHairpin (structured_RNA)
RNA: UGGGCUGUUCGCCCAU

Tests used:
YxiN S108C/N444C [1] = molecular target: T1, YxiN S108C/N444C; assay: fluorescence anisotropy
YxiN S108C/N464C = molecular target: T2, YxiN S108C/N464C; assay: smFRET
YxiN S108C/D429C = molecular target: T3, YxiN S108C/D429C; assay: smFRET
[2] = molecular target: T4, YxiN A115C/S229C biotinylated; assay: smFRET
YxiN S108C/S229C = molecular target: T5, YxiN S108C/S229C; assay: smFRET
YxiN S108C/N444C [3] = molecular target: T1, YxiN S108C/N444C; assay: smFRET

Binder | Kd (YxiN S108C/N444C [1]) | binding result (YxiN S108C/N464C) | binding result (YxiN S108C/D429C) | binding result [2] | binding result (YxiN S108C/S229C) | binding result (YxiN S108C/N444C [3])
B1 | 170 nM | – | – | – | – | –
B2 | – | binds | binds | binds | binds | –
B3 | – | – | – | – | binds | binds
